# Test: yeast display, Sf9 membrane polyspecificity reagent, FACS + sequencing; frameworks hold sequencing errors
# How it was run: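 Nanobodies came from a synthetic yeast display library in Saccharomyces cerevisiae BJ5465, induced with galactose for 36–48 hours and stained for 1 hour at 4 °C with 10% biotinylated, detergent-solubilized Sf9 membrane reagent. Cells were enriched on streptavidin microbeads and then FACS-sorted, with low and high (top ~1%) gates set on anti-HA fluorescence for expression and streptavidin fluorescence for reagent binding. Each polyreactivity label reflects the gate a clone came from. Genes were amplified by colony PCR, sequenced by MiSeq 2 × 250 and filtered by CDR length.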
row,Sequence,polyreactivity (PSR sort gate)
1,QVQLVESGGGLVQAGGSLRLSCAASGRIFPWYAMGWYRQAPGKERELVAAITSGGGSTSYADSVKGRFTISRDNAKNTVYLQMNRLKPEDTAVYYCAARRWISSHSYKYGYWGQGTQVTVSS,high polyreactivity
2,QVQLVESGGGLVQAGGSLRLSCAASGRIFPWYAMGWYRQAPGKERELVATISSSGRTNYADSVKGRFTISRDNAKNTVYLQLNSLQPEDTAVYFCAATLYHYWYADFDYWGQGTQVTVSS,high polyreactivity
3,QVQLVESGGGLVQAGGSLRLSCAASGRIFPYNAMGWYRQAAGKERELVAAISLSGDSTYYADSVKGRFTISRDNAKNTVFLHMNSLKPEDTAVYYCNAPSYWYYPVLGSFLTFEYWGQGTQVTVSS,low polyreactivity
4,QVQLVESGGGLVQAGGSLRLSCAASGRIFPYNAMGWYRQAPGKERELVAAISFGGGRTYYADSVKGRFTISRDNAKNTVYLQMNRLKPEDTAVYYCNTASPQDIVFRVFYGGDYWGQGTQVTVSS,low polyreactivity
5,QVQLVESGGGLVQAGGSLRLSCAASGRIFPYYAMGWYRQAPGKEREFVAAITKRGGSTSYADSVKGRFTISRDNAKNTVYLQMNSLKPEDTAVYYCAARRGSGIVTYYGGDYWGQGTQVTVSS,low polyreactivity
6,QVQLVESGGGLVQAGGSLRLSCAASGRIFPYYAMGWYRQAPGKERELVASIRYSAVNTYYADSVKGRFTISRDNAKNTVYVQMNSLKPEDTAVYYCWYTQNTLGNYWGQGTQVTVSS,low polyreactivity
7,QVQLVESGGGLVQAGGSLRLSCAASGRIFPYYAMGWYRQAPGKERELVATISTAGSTNYADSVKGRFTISRDNAKNTVYLQMNSMKPEDTAVYYCATRNTWYHRGYDFWGLGTQVTVSS,low polyreactivity
8,QVQLVESGGGLVQAGGSLRLSCAASGRIFPYYAMGWYRQAPGKVRELVASIRYSAGNTYYADSVKGRFTISRDNAKNTVYLQMNSLKPEDTAVYYCWYTQNTLGNYWGQGTQVTVSS,low polyreactivity
9,QVQLVESGGGLVQAGGSLRLSCAASGRIFPYYTMGWYRPAPGKERELVAAISRRGSSTYYADSVKGRFTISRDNAKNTVYLQMNSLKPEDTAVYFCAADRGGYTRTGEYDYWGQGTQVTVSS,high polyreactivity
10,QVQLVESGGGLVQAGGSLRLSCAASGRIFQDYAMGWYRQATGKERELVAAITWSGGRTYYADSVKGRFTISRDNAKNTVYLQMNSLKPEDTAVYYCNRLTQSRLYYGPREYYYWGQGTQVTVSS,high polyreactivity
11,QVQLVESGGGLVQAGGSLRLSCAASGRIFQHNTMGWYRQAPGKERELVAAITRGGRTNYADSVKGRFTISRDNAKNTVYLQMNSLKPEDTAVYYCAARYVERHTDYYYWGQGTQVTVSS,low polyreactivity
12,QVQLVESGGGLVQAGGSLRLSCAASGRIFQLYTMGWYIQAPGKERELVAAITSGTSTSYADSVKGRFTISRDNAKNTVYLQMNSLKPEDTAVYYCNKGSVSYSSVFVPYESDYWGQGTQVTVSS,low polyreactivity
13,QVQLVESGGGLVQAGGSLRLSCAASGRIFQPNAMGWYRQAPGKEREFVAAISSSGGYTFYADSVKGRFTISRDNAKNTVYLQMNSLKPEDTAVYYCAKRYGYTEYFYWGQGSQVTVSS,high polyreactivity
14,QVQLVESGGGLVQAGGSLRLSCAASGRIFQQYALGWYRQAPGKEREWVAVITYRAGRTHYADSVKGRFTISRDNAKNTVYLQMNSLKPEDTAVYYCAAGRYYAVWQSISGFDSWGQGTQVTVSS,low polyreactivity
15,QVQLVESGGGLVQAGGSLRLSCAASGRIFQRNTMGWYRQAPGKERELVAAITWNGGSTYYADSVKGRFTISRDNAKNTVFLQMNSMKPEDTAVDYCATAYRYSVHKALGFNYWGQGTQVTVSS,high polyreactivity
16,QVQLVESGGGLVQAGGSLRLSCAASGRIFQRYAMGWYRPAPGKERELVAAISSRGGRTFYADSVKGRFTISRDNAMYSVYLQMNSLKPEDSAAYYCAATATVGSVTFDYWGQGTQVSVSS,high polyreactivity
17,QVQLVESGGGLVQAGGSLRLSCAASGRIFQRYAMGWYRQAPGKERELVAGITSSGGSTYYADSVKGRFTISRDNAKNTVYLQMNSLKPEDTAVYYCNAGGELRYYGYRAGGTTRSYDYWGQGTQVTVSS,low polyreactivity
18,QVQLVESGGGLVQAGGSLRLSCAASGRIFQTNVMGWYRQAPGKEKELVAAISYRGGTTYYEDSVKARFTISRDNAQNTVYLPMYSLYPEDTAVYYCAALHYRIRRTGMDYWGQGTQVTVSS,low polyreactivity
19,QVQLVESGGGLVQAGGSLRLSCAASGRIFQTYAMGWYRQAPGKERDLVASITSGVDTYYADSVKGRFTISRDNAKNTVYLQMNSLKPEDNAVYYCAAEPYRTVTAYRYSLYWYNYWGQGTQVTVSS,high polyreactivity
20,QVQLVESGGGLVQAGGSLRLSCAASGRIFQWYAMGWYRQAPGKERELVAAIRNGGTTNYADSVKGRFTISRDNAKNTVYLQMNSLKPEDTAVYYCNADKYRTWVFQPRYPGGYWGQGTQVTVSS,low polyreactivity
21,QVQLVESGGGLVQAGGSLRLSCAASGRIFQYNAMGWYRQAPGKEREFVAAIRRGGGSTYYADSVKGRFTISRDNAKNTVYLQMNSLKPEDTAVYYCAARRKRVSFYPEYDYWGQGTQVTVSS,low polyreactivity
22,QVQLVESGGGLVQAGGSLRLSCAASGRIFQYNAMGWYRQATGKERELVAAITWSSGSTYYADSVKGRFTISRDNAKNTVYLQMNSLKPEDTAVYYCNTVRVLYYDRQFLFRGSRFGYWGQGTQVTVSS,high polyreactivity

row,Sequence,polyreactivity (PSR sort gate)
1,QVQLVESGGGLVQAGGSLRLSCAASGRIFQYNVIGWYRQARWKERELVAAISSGGNTYYADSVKGRFTISRDNAKNTVYLQMNSLKPEDTSFYYCAADHYVPWPNYDYDYWGQGTQETVSS,low polyreactivity
2,QVQLVESGGGLVQAGGSLRLSCAASGRIFQYYAMGRYGQAPGKERELVARISSRGGSTYYADSVKGRFTISRDNAKNTVYLQMNSLKPEDTAVYYCNTRWYSSYYQPSYNYWGQGTQVTVSS,high polyreactivity
3,QVQLVESGGGLVQAGGSLRLSCAASGRIFQYYAMGWYRQAPGKERELVAAINSSGGRTYYADSVKGRFTISRDTAKNTVYLQMNSLTPEDTAVNSCNAVLSTRGMDYWGQGTQVTVSS,high polyreactivity
4,QVQLVESGGGLVQAGGSLRLSCAASGRIFRAYTMGWYRQAPGKERELVAAISGSGTSTYYADSVKGRFTISRDNAKNTVYLQMNSLKPEDTAVYYCAAPSLSGYGYEYWGQGTQVTVSS,high polyreactivity
5,QVQLVESGGGLVQAGGSLRLSCAASGRIFRDYDMGWYRQAPGKERELVASISTRGGSTYADSVKGRFTISRDNAKNTVYLQMNSLKPEDTAVYYCAADSSGFSRYDYWGQGSQVTVSS,low polyreactivity
6,QVQLVESGGGLVQAGGSLRLSCAASGRIFRFNAMGWYRQAPGKERELVAAITGSGGTTFYADSVKGRFTISRDNAKNTVYLQMNSLKPEDTAVYYCNTLGNWRPVYNQPRYEYWGQGTQVTVSS,high polyreactivity
7,QVQLVESGGGLVQAGGSLRLSCAASGRIFRFYAMGWYRQAPGKERELVAAISSRGGSTYDADSVKGRFTISRDNAKNTVYLQMNSLKPEDTAVYYCNAYGSTSQMDYWGQGTQVTVSS,high polyreactivity
8,QVQLVESGGGLVQAGGSLRLSCAASGRIFRFYAMGWYRQAPGKERELVAAISWRGGRTYYADSVKGRFTISRDNAKNTVYVQMNSLKPEDTAVYYCNADKYETSGWKYVSWGQGTQVTVSS,low polyreactivity
9,QVQLVESGGGLVQAGGSLRLSCAASGRIFRFYAMGWYRQAPGKERELVAAITYGGGTTYYADSVKGRFTISRDNAKNTVYLQMNSLKPEDTAVYYCAADHRQGYDHEYDYWGQGTQVTVSS,low polyreactivity
10,QVQLVESGGGLVQAGGSLRLSCAASGRIFRFYAMGWYRQAPGKERELVAGITYSGGSTFYADSVKGRFTISRDNAKNTVYLQMNSLKPEDTAVYYCAAVYVPYYWLGRSRGLDYWGQGTQVTVSS,high polyreactivity
11,QVQLVESGGGLVQAGGSLRLSCAASGRIFRFYAMGWYRQAPRKERELVAAITSGGSTYYADSVKGRFTISRDNAKNTVYLQMNSLKPEDTAVYYCANYYWGQGTQVTVSS,low polyreactivity
12,QVQLVESGGGLVQAGGSLRLSCAASGRIFRGNAMGWSRQAPGKERELVAGISVRGGRTYYADSVKGRFTISRDNAKNTVYLQMNSLKPEDTAVYYCAAVFWDDYGKYYYWGQGTQVTVSS,high polyreactivity
13,QVQLVESGGGLVQAGGSLRLSCAASGRIFRGNAMGWYRQAPGKERELVAAINYSGGSTYYADSVKGRFTISRDNAKNTVYLQMNSLKPEDTAVYYCAAEPGQYGWYYGYGYWGQGTQVTVSS,high polyreactivity
14,QVQLVESGGGLVQAGGSLRLSCAASGRIFRGNTMGWYRQAPGKERELVAAITIRGRTYYADSVKGRFTISRDNAKNTVYLQMNSLKPEDTAVYYCAVASAGDNDYWGQGTQVTVSS,low polyreactivity
15,QVQLVESGGGLVQAGGSLRLSCAASGRIFRGYAMAWYRQAPGKERELVAAISGRGGRTNYADSVKGRFTISRDNAKNTVYLQMNSLKPEDTAVYYCATVPYTASRYEYWGQGTQVTVSS,high polyreactivity
16,QVQLVESGGGLVQAGGSLRLSCAASGRIFRGYAMGWYRQAPGKEREFVAAITKNGGSTYYADSVKGRFTISRDNAKNTVYLQMNSLKPEDTAVYYCNAGTFTRRRGLDYWGQGTQVTVSS,low polyreactivity
17,QVQLVESGGGLVQAGGSLRLSCAASGRIFRGYAMGWYRQAPGKERELVAAIDRVGRTKYADSVKGRFTISRDNAKNTVYLQMNSLKPEDTAVYYCAAKASRVDWGYGYWGQGTQVTVSS,high polyreactivity
18,QVQLVESGGGLVQAGGSLRLSCAASGRIFRGYAMGWYRQAPGKERELVAAISGSGGSTYYADSVKGRFTISRDNAKNTVYLQMNSLKPEDTAVYYCAADQQSTGDWAGDYWGQGTQVTVSS,low polyreactivity
19,QVQLVESGGGLVQAGGSLRLSCAASGRIFRHKAMGWYRQAPGKETELVAAITSRGGTYYADSVKGRFTISRDNAKNTVYLQMNSLKPEDTAFYFCNADQALYSSGNKYDYWGQGTQVTVSS,low polyreactivity
20,QVQLVESGGGLVQAGGSLRLSCAASGRIFRHNAMGWYRQAPGKESELVAAISGGGTTYYADSVKGRFTISRDNAKNTVYLQMNSLKPEDTAVYYCAARRRGSVGVGYAYPYNYWGQGTQVTVSS,high polyreactivity
21,QVQLVESGGGLVQAGGSLRLSCAASGRIFRHNTLGWYRQAPGKEREFVAAISRNGGITYYADSVKGRFTISRDNAKNTVYLQMNSLKPEDTAVYYCNAYTYRQNDYWGQGTQVTVSS,high polyreactivity

# — the nanobody polyreactivity screen of Harvey et al. (2022)
